Source: the domain aggregation screens of Martell et al. (2025)

Assay: soluble fraction after stress (log2 fold change); higher = more stays soluble; pooled small domains, quantitative proteomics
Conditions: stress: pH 4
Procedure, shortened: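 Pooled custom libraries of small protein domains were subjected to pH 4 and measured by high-throughput quantitative proteomics. The log2 fold change in soluble amount per domain is reported, higher values meaning more remained soluble. This is used as a measure of aggregation propensity.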

Compared with “HMKGIVFTEFLDLVEERFGLEMVDAIISQSKLESKGVYTSIGTYSFSELLQLLQNLKIQTGISIDNLLLI”, “HMDVQNLTKKNQEFINIVTHQLLQSGKSDEDIQTILAKTLPEIIEKQKQGIPARSFLGAPTAWAAQFI” is higher in “soluble fraction (log2)” value: -1.51 for the first, -0.0313 for the second.

Going from “HMTYPGSIALVNPKHEAFVQHYVATSGSRGQAAKLAGVTTTTARNLLQDVEATARIRYLNAQQFQ” to “HMSKDQKKFFIEIVSIRGFGSQIGISILNKLSIPQIINAIKTQNKKEISSIPGIGQKMTERLILELNNKFK”, the “soluble fraction (log2)” value falls from 0.22 to -0.691.

“HMQDLTAQQQAILSFLKEHPKATRKEISENIPNITEDNIRYNLSQLQELGFVKSMGDSFIRIAI” and “HMIEKVNDYVVRFANVNGTGSASANNLFALAIYRMGVPVTPKNIFPSNIQGLPTWFEVRVSGSGYLARRG” are within 0.2 log units of each other in “soluble fraction (log2)” value: 0.216 for the first, 0.129 for the second.

First: HMREIEVNYAAGDSVRVIDGPLAGFIGVVSSVEPDKNKVNVTVSMFGRETPVELELDQVETLD
Second: HMRQSQEVSGGERYRRLTAYLDTHPFITRKEYSGITGLLKNKALNDLNLLVNKGYLEAMGRGSHKVYVRPM
The “soluble fraction (log2)” value of the first is lower: -0.669 for the first, 0.321 for the second.

First: HMSIYMNIYNEFKKYIIANVYKYDDKLPSVRSIALEYGINPNTVQRAFQLLEDEGYIKTISKKGVYVNYR
Second: HMALTQEQLGQRLQDARKSVALTQQEVAEDLGLSRESLAQIEAGSRSVNSLEIVRLARLYGRSLSSILLE
The “soluble fraction (log2)” value of the first is higher: 0.112 for the first, -0.299 for the second.

Going from “HMGLSNYEFNSISQTVKEKLEQGPLTLKALVDETAHLFAEDKVVSVVQWLIDQRDLAYDDHGLLQWKG” to “HMSHKYKLTVPETGEGTRVDKFLSSALTELSRTRLKSLIEEGQVTLGGVKLTNPSHRVKSGDELNIEIPVP”, the “soluble fraction (log2)” value rises from -0.871 to 0.0568.

“HMAPETALQILEQIQINPKVTMTDLANLTGYSRRWVAQTMKQLQELNVIKRVGSTKTGYWEIIA” and “HMRIFDDNMIFPTEAEISAALKRLVMDLPKVGFLQGHGERAVDNVGERAYSMFTHANNFRYALINQGFVT” are within 0.2 log units of each other in “soluble fraction (log2)” value: -0.142 for the first, -0.0562 for the second.

First: HMAIDLSLIPGNLLRELHGAVEDGDMYRIRELIRSISAVDEKVGKELLLLAERYDYERLLELVND
Second: HMNPNSIDEKLKLLSNREKEVAILVLKKLSYFEISEQLNITIRTVKAHTKNIYEKFNVSNRLAFLLLFN
The “soluble fraction (log2)” value of the first is lower: -1.03 for the first, -0.209 for the second.

“HMSEEELETSGLVKRSAKGNLYDIFRHRVMVPIIDVRGAIIAFGGRVLDDSKPKYINSPETMVY” and “HMNEKEAEEAAEAQTEVPDVTGMAPAQAKNMLYQAGLSSEYRGEGETVSRQLPPAGETVNRGTKAVLYL” are within 0.2 log units of each other in “soluble fraction (log2)” value: 0.0468 for the first, 0.2 for the second.

Compared with “HMTMGAAEAQALKDEALELYRTGGTQEDVVRAIEMYEQAAEAGNAQAASDLAYLKANGVYETAMNN”, “HMQEISQEEALATVLKDLSLTEADLKDLQITREEDKYKILFSKGQTAYDVLVSAKDGQLLQSKQETI” is higher in “soluble fraction (log2)” value: -0.75 for the first, -0.359 for the second.

First: HMGYNDQEVKSNLITLLSTSKTGLSGVEISAQLGINRVTMTKFLNVFAAEGIIKQKNIGNLNLWLVEEGTE
Second: HMQNSMTTTPDVVGKTGTFAEQMLKAANLNVQFAGDSSGKVVAQDVEAGTSAAYGTIITLTMDS
The “soluble fraction (log2)” value of the first is lower: -0.05 for the first, 0.25 for the second.

Going from “HMNTGIPHQEVIKKLYSFAEGGDWKGLKEELNRIKEYTLFYNSVKELADSFEINRLIEKLKTYIF” to “HMTGSAETRGITLTDEQVTVWAKDGSWANYVYRATDGNWYDGSGRLYYENGGGEWTQAATGEQGS”, the “soluble fraction (log2)” value falls from -0.0132 to -1.68.

Compared with “HMDLGTHMRLIVPTGMRVDHIVYESNGKNISVDHDRSISVRWNGEVVSIDVSPLPSRPDFDVLIYMSPK”, “HMDTHDVQVPQEGQGLRLDLFLTDHIEGSRSFIQTIIKDGHVILNGKKAKANSRLNEGDYVVWSIPKPE” is lower in “soluble fraction (log2)” value: -0.162 for the first, -0.37 for the second.

Going from “HMGNASQAARRQRIVDAALELLQDRPYDQIQMRDVAEGAGVALGTLYRYFPSKEQLFAHVLVE” to “HMLPDLQKAIDTFLYEVDSRINTSFEELIDKLNSKEEAVAFFLALLEAVRWGFIKAEQESNSINIKK”, the “soluble fraction (log2)” value falls from -0.701 to -1.49.

Going from “HMFSVVDKITLQEELKKLSKKEQLLIQLRYYDELNQEEIAKIFHVSQVQISRMEKKIIEKLKKQF” to “HMHPLFRVVLAGEPNGVGLDDWLTRHEAELINGPSAIGVLTVKIAMGRRSFETVLDEIRADGETIFVEPV”, the “soluble fraction (log2)” value falls from 0.273 to -2.02.

Compared with “HMVAPNSEATTKLIIEKTKYANESPAILMGFKATATMLMAKHVVLPTSKYAYFNEGRALLEKAIK”, “HMATVHPIRIQGGMTTQQGGKTVWLWVSDEGRLMTEDEIAGESGGTVSSRMVRGVRVLTGTGVIYG” is lower in “soluble fraction (log2)” value: 0.278 for the first, -0.57 for the second.

“HMQQEAVSGKLLQLDLAKKEGRLSTDLGREVLFHIPKPELFVHLSVGQRIIIKLDAGQEAVGV” and “HMLHMKAALGELMSIPGMRSELAGTLFDRGYTSLAQLRAATLDDLERVNGLERADARRIHDFLRKS” are within 0.2 log units of each other in “soluble fraction (log2)” value: 0.0773 for the first, -0.066 for the second.

Compared with “HMDFSNVNFSQVSDSELDLLMRRASAQGYTQFDLLKIARAQGLTQAEIEKLDKRFKSAETVAYVAENA”, “HMPAVGGVVKGAVVSVGRNEVRLDIGGLAIGIIRGPELDKHVDLRIGDEVEATVITLDNEFGELELSL” is lower in “soluble fraction (log2)” value: 0.0811 for the first, -1.73 for the second.

Compared with “HMQTFGTMIAALRKEQGMTQLELAEKMGVTDKAVSKWERDLSFPDVNSLPKLAEIFHVSVDEL”, “HMAPRDKADKYVAAGIAEELVPILQKVGYYLVTDLKDVKAQKIQQQIGEIIKKYKLDIEKPSVQDIEGWN” is lower in “soluble fraction (log2)” value: 0.216 for the first, -0.259 for the second.

“HMEKIELKTVIPENLKKKRLDFALSELFPEHSRSRIQSWIKEGSVMVNSKNYRQRDLVDAGDVVEINTEQK” and “HMGSEGVKVEDTIGMSEAEATATLGKSGFVVNKTESHDPYIKAGNVITQSPAAGSKAPKGTTVTLTISLGP” are within 0.2 log units of each other in “soluble fraction (log2)” value: 0.321 for the first, 0.423 for the second.

First: HMDIEITIPPEAKELDVSKILISGNIITDEQEFLDYLKQNNVAAFKDGNYKLNKNMTTEEIVNQIK
Second: HMSLTEEQVDSGLKEIRLALLEADVALPVVKNFITNIKPKAIGQEIIRSTSPGQMIVKIVYDELVSIL
The “soluble fraction (log2)” value of the first is lower: -1.2 for the first, -0.85 for the second.

Going from “HMVRKGEINFDQLSVRARNALRNMNILFEKEILKLTEYDLKSIPNLGVKTTNELLSYIKRLQTNQKEE” to “HMNTVAGAISDLSFKVRGSEDIEKLNRLKALSIQAKLDVQGQEEAERLISELEAKYGSLGMTVDKVSGKIA”, the “soluble fraction (log2)” value rises from -0.653 to 0.192.

Compared with “HMFYNDLINFDVFRDSRKIGKIENINSRLPQPVFEIMYDSRIVLIPIHEDFIRKIDKVNNIIYLDIPDGLL”, “HMGKQPLYEQLVDLLRDRIENDMETGELLPSERKLAHHFGLSRTTVRLAMDRLETLGLITRVHGKDTFVAE” is higher in “soluble fraction (log2)” value: -1.69 for the first, -0.12 for the second.

Compared with “HMFFMTMGEKIQLLRKKQNWSQETLAEKLSVSRQAVSLWERDESQPELDKLLKLAKIFSVTTDYLIDDSVT”, “HMPSPFYIMDEVEAALDDTNLGRLITLFEELRDSSQLIVITHQKKTMEIADALYGVTMRGDGITTVVSQRL” is lower in “soluble fraction (log2)” value: -0.0472 for the first, -2.24 for the second.

Going from “HMQVSDEGPIKAILQEVLDKSPTQLADYASGKVKLRQYFFGEAMKALKGKANPQVINKLLDEMLPPVAA” to “HMSDLTEVIVKFSGDIQPIRQDLDAQVEILLKGYAIITLSPNKIGRLYSYPQIESIEIPKNLYI”, the “soluble fraction (log2)” value falls from -0.178 to -0.833.

“HMTVSKLKVINYTIRNGDSLWTISRKFNVTVDKVKEWNGLSDRTLLQPGQKLTLYVDPTIQISH” and “HMQMKDRILRIMEHEGISPSKFAEEIGIQRSAMSHIISGRNNPSLDVLTKIMQRFTYVDTDWLLFGKGSMV” are within 0.2 log units of each other in “soluble fraction (log2)” value: -0.406 for the first, -0.334 for the second.

“HMGRTVKGVNFVGLRDAGDPVDLAEIYSKEGADELVFLDITATHEKRKTLLDLVTRVAERINIPFTVGGGI” and “HMENAEALLKKLSGVLSDYEYKMLMLYADGKTPRRIAQETGQSAKSVSNALFRARTKLKELYEDQ” are within 0.2 log units of each other in “soluble fraction (log2)” value: -0.331 for the first, -0.455 for the second.

“HMGAQKITIPDFSNQEATQVYAELKNMGLEYTESRMNHPSIASGYVIKTEPTKGSEVKAGTTVTVYVSLG” and “HMTNADRYIGQEATVTEKISNELSTGAVRIGGLVWTARTVDNSEAEEGERVTVEAIEGAKLLVKRR” are within 0.2 log units of each other in “soluble fraction (log2)” value: -0.128 for the first, -0.0323 for the second.

First: HMNGVFIMHTPDGKVLRTEEGEEAVITLFNWSGQLLWSKTSLGQLPLPEGTQGVLQVQYKSGDQHTIKT
Second: HMQYDALVLNLLQEKNLTSESLKDAQRAFAKSHNLSTLPSKSQILQAYFQLLEQGKIEKNPDFELLL
The “soluble fraction (log2)” value of the first is lower: -0.425 for the first, 0.0152 for the second.

Compared with “HMLGKEVVRAYNISYAIDDKGSLQGDLTAALTGLIPLSKPPVLDQRNRSLYVTATPEQHKDVAALLAKL”, “HMKMVEIDYGKFLTMLDTGKVKSVEIENNRIAINPSSSKDKNIYITGRMDDPELVDRLKNAKVEFTKVIP” is higher in “soluble fraction (log2)” value: -0.364 for the first, -0.0394 for the second.

“HMLYETLKKGDQGTSVKTLQEKLKALGYLTGAADGKYGAGTETAVKSFQKAAGLTETGTADPETLSAVYAA” and “HMPNDYRKKLEILAKEKGAEYLHTMLTEVDPKSALQIHTNNIKRTIRALEFYHQTGMKISEHNEAEREK” are within 0.2 log units of each other in “soluble fraction (log2)” value: 0.0393 for the first, 0.0478 for the second.

Compared with “HMVVKLTQEQDRFIKTFNDKSLAFYYISSWGWGSFLRNGIGGVYEGDKTPFTLDEKEKMLNAIINGYEVI”, “HMRIATVTPIEEDQASDRVVAVYNDIKSTKQIDFIPNFWKVIAVNPDLLEQVWGQLKTLMHPEEVG” is higher in “soluble fraction (log2)” value: -1.36 for the first, -0.948 for the second.

“HMQIDRLFDIVYTLLRKKSATAAELAERFGVSKRTILRDIETLSVAGIPILTSPGKGGGVSISSSF” and “HMNPIDAHVGARVRLRRMLIGMSQEKLGELLGVTFQQIQKYEKGANRIGASRLYEVSRVLDVPVQYFFDDM” are within 0.2 log units of each other in “soluble fraction (log2)” value: -0.423 for the first, -0.436 for the second.

“HMRTYDPQAVELNNKALELINQGRLDSALLVYDQSIKTDKTYYFPHIGKSIIYMRKKDWNKAFEETQQAIK” and “HMLEAMDSDEAAKVIEQIVNERADFVRSKGMGAIGPLMGPVMGALRGKVDGKQANELLTAAIKKLL” are within 0.2 log units of each other in “soluble fraction (log2)” value: 0.0261 for the first, 0.177 for the second.

Going from “HMNVAVSEADAKAAALERVSGATEADIRMELELDDGYYVYEGDIIYQQKEYEFEIDAQTGKFLKWSEER” to “HMVLLGAAIRELRIQKGITIEELAEMSGLSTGLISKIERDLGNPSISSLRKISRALGVPTAFFFA”, the “soluble fraction (log2)” value falls from 0.0965 to -0.744.

Compared with “HMARRSRADAVRNREALIDAAKAAFTEAGPDVSLEEIARRAGVGIGTLYRHFPTRDAVIEAVYR”, “HMKQQNFADLAGRFVFNADNEVVFNFGKHKNVPVATVLKNEPGYYGWMMGGDFPLFTKKILKQIKEA” is lower in “soluble fraction (log2)” value: -0.206 for the first, -0.952 for the second.

First: HMGQLTDKQILLFSGKLAYEPTFASKYSKAGESYDDFIIRISGDLTDPKKIKEYSPYLKELGF
Second: HMQEERDISFIKIHLEPGHPWRGRALRELMPLKDLLIVMVVRGEDTIVPNGDTRLEEGDLLVLAAYPFEE
The “soluble fraction (log2)” value of the first is higher: -0.954 for the first, -2.57 for the second.

For “HMGRGAAKGPLKELGLDPVTGRPLVVKDGKFGMYVTDGETNAGLRRGDLVEQLTLDRGMELLAERRARADQ”, the “soluble fraction (log2)” value was -0.258.
